# Laboratory results from paper PMC3393700, “Localization and Sub-Cellular Shuttling of HTLV-1 Tax with the miRNA Machinery” (PLoS ONE, 2012).
# Experiments:
# [1] = biological target: Tax deletion mutant TD1 (Δ1–37) (HTLV-1, UniProt P03409 38-353); assay: cell-based or functional assay
# [2] = biological target: Tax deletion mutant TD55 (Δ55–92) (HTLV-1, UniProt P03409 1-353, Δ55–92); assay: cell-based or functional assay
binder,measurement,setting,value
"Drosha (endogenous, 293T cell lysate) (enzyme, human (endogenous in 293T), UniProt Q9NRR4 1-1374, looked up) MMQGNTCHRMSFHPGRGCPRGRGGHGARPSAPSFRPQNLRLLHPQQPPVQYQYEPPSAPSTTFSNSPAPNFLPPRPDFVPFPPPMPPSAQGPLPPCPIRPPFPNHQMRHPFPVPPCFPPMPPPMPCPNNPPVPGAPPGQGTFPFMMPPPSMPHPPPPPVMPQQVNYQYPPGYSHHNFPPPSFNSFQNNPSSFLPSANNSSSPHFRHLPPYPLPKAPSERRSPERLKHYDDHRHRDHSHGRGERHRSLDRRERGRSPDRRRQDSRYRSDYDRGRTPSRHRSYERSRERERERHRHRDNRRSPSLERSYKKEYKRSGRSYGLSVVPEPAGCTPELPGEIIKNTDSWAPPLEIVNHRSPSREKKRARWEEEKDRWSDNQSSGKDKNYTSIKEKEPEETMPDKNEEEEEELLKPVWIRCTHSENYYSSDPMDQVGDSTVVGTSRLRDLYDKFEEELGSRQEKAKAARPPWEPPKTKLDEDLESSSESECESDEDSTCSSSSDSEVFDVIAEIKRKKAHPDRLHDELWYNDPGQMNDGPLCKCSAKARRTGIRHSIYPGEEAIKPCRPMTNNAGRLFHYRITVSPPTNFLTDRPTVIEYDDHEYIFEGFSMFAHAPLTNIPLCKVIRFNIDYTIHFIEEMMPENFCVKGLELFSLFLFRDILELYDWNLKGPLFEDSPPCCPRFHFMPRFVRFLPDGGKEVLSMHQILLYLLRCSKALVPEEEIANMLQWEELEWQKYAEECKGMIVTNPGTKPSSVRIDQLDREQFNPDVITFPIIVHFGIRPAQLSYAGDPQYQKLWKSYVKLRHLLANSPKVKQTDKQKLAQREEALQKIRQKNTMRREVTVELSSQGFWKTGIRSDVCQHAMMLPVLTHHIRYHQCLMHLDKLIGYTFQDRCLLQLAMTHPSHHLNFGMNPDHARNSLSNCGIRQPKYGDRKVHHMHMRKKGINTLINIMSRLGQDDPTPSRINHNERLEFLGDAVVEFLTSVHLYYLFPSLEEGGLATYRTAIVQNQHLAMLAKKLELDRFMLYAHGPDLCRESDLRHAMANCFEALIGAVYLEGSLEEAKQLFGRLLFNDPDLREVWLNYPLHPLQLQEPNTDRQLIETSPVLQKLTEFEEAIGVIFTHVRLLARAFTLRTVGFNHLTLGHNQRMEFLGDSIMQLVATEYLFIHFPDHHEGHLTLLRSSLVNNRTQAKVAEELGMQEYAITNDKTKRPVALRTKTLADLLESFIAALYIDKDLEYVHTFMNVCFFPRLKEFILNQDWNDPKSQLQQCCLTLRTEGKEPDIPLYKTLQTVGPSHARTYTVAVYFKGERIGCGKGPSIQQAEMGAAMDALEKYNFPQMAHQKRFIERKYRQELKEMRWEREHQEREPDETEDIKK","miR326 expression (quantiMiR PCR, normalized to U6, relative to mock) in 293T cells transfected with the Tax mutant",[1],1.5 fold
same,"miR326 expression (quantiMiR PCR, normalized to U6, relative to mock) in 293T cells transfected with the Tax mutant",[2],4 fold
